Data set [1] has as its system HeLa Kyoto. In words: melting temperature (median over replicates), in situ; higher = more thermally stable.
Data set [2] concerns HeLa Kyoto. In words: solubility change mitosis vs G1/S (difference of NP-40 vs SDS log2 ratios) (log2 ratio difference); higher = more soluble in mitosis.
In data set [3] the test system is HeLa Kyoto. In words: solubility in G1/S (NP-40 vs SDS abundance) (log2 ratio); higher = more soluble. To be noted: cell cycle stage: G1/S.
Data set [4] relates to HeLa Kyoto. In words: thermal stability score vs G1/S (z-score of summed log2 fold changes over temperatures); higher = more thermally stable than in G1/S.
The mark [5] stands for this setting: cell cycle stage: early G1 (4.5 h after nocodazole release).

Experimental findings from the supplement of paper PMC5998384 are described below.
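Throughout, for melting temperature (median over replicates), in situ: HeLa Kyoto cells synchronized by double thymidine or nocodazole block, proteins quantified by TMT10plex mass spectrometry, three independent biological replicates.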
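Throughout, for solubility change mitosis vs G1/S (difference of NP-40 vs SDS log2 ratios): synchronized HeLa Kyoto cells (double thymidine block for G1/S, nocodazole release for mitosis), protein amounts in NP-40 versus SDS lysates quantified by mass spectrometry, three biological replicates.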
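Throughout, for solubility in G1/S (NP-40 vs SDS abundance): HeLa Kyoto cells arrested at G1/S by double thymidine block, proteins quantified by TMT10plex mass spectrometry in mild NP-40 versus SDS extracts, three biological replicates.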
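Throughout, for thermal stability score vs G1/S (z-score of summed log2 fold changes over temperatures): synchronized HeLa Kyoto cells, proteins quantified by TMT10plex mass spectrometry, three biological replicates, mitosis taken 0.5 h after nocodazole release, G1/S directly after double thymidine block.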

Take “MATKIDKEACRAAYNLVRDDGSAVIWVTFKYDGSTIVPGEQGAEYQHFIQQCTDDVRLFAFVRFTTGDAMSKRSKFALITWIGENVSGLQRAKTGTDKTLVKEVVQNFAKEFVISDRKELEEDFIKSELKKAGGANYDAQTE [COTL1]”: the results for the melting temperature in the data set with HeLa Kyoto [1] (cell cycle stage: G1/S) and in the data set on HeLa Kyoto [1] (cell cycle stage: mitosis) were 52.4 °C and 52.8 °C, respectively. Moreover, in the data set with HeLa Kyoto [2], the “solubility change mitosis (log2)” value amounted to 0.0356. For the same sequence, the “solubility in G1/S (log2)” value with HeLa Kyoto [3] was found to be 0.108. Further, the thermal stability score was determined as 3.44 in the data set on HeLa Kyoto [4] (setting [5]) and 1.43 in the data set on HeLa Kyoto [4] (cell cycle stage: mitosis).
For “MATKTAGVGRWEVVKKGRRPGVGAGAGGRGGGRNRRALGEANGVWKYDLTPAIQTTSTLYERGFENIMKRQNKEQVPPPAVEPKKPGNKKQPKKVATPPNQNQKQGRFRSLEEALKALDVADLQKELDKSQSVFSGNPSIWLKDLASYLNYKLQAPLSEPTLSQHTHDYPYSLVSRELRGIIRGLLAKAAGSLELFFDHCLFTMLQELDKTPGESLHGYRICIQAILQDKPKIATANLGKFLELLRSHQSRPAKCLTIMWALGQAGFANLTEGLKVWLGIMLPVLGIKSLSPFAITYLDRLLLMHPNLTKGFGMIGPKDFFPLLDFAYMPNNSLTPSLQEQLCQLYPRLKVLAFGAKPDSTLHTYFPSFLSRATPSCPPEMKKELLSSLTECLTVDPLSASVWRQLYPKHLSQSSLLLEHLLSSWEQIPKKVQKSLQETIQSLKLTNQELLRKGSSNNQDVVTCDMACKGLLQQVQGPRLPWTRLLLLLLVFAVGFLCHDLRSHSSFQASLTGRLLRSSGFLPASQQACAKLYSYSLQGYSWLGETLPLWGSHLLTVVRPSLQLAWAHTNATVSFLSAHCASHLAWFGDSLTSLSQRLQIQLPDSVNQLLRYLRELPLLFHQNVLLPLWHLLLEALAWAQEHCHEACRGEVTWDCMKTQLSEAVHWTWLCLQDITVAFLDWALALISQQ [TMEM214]”, the melting temperature in the data set with HeLa Kyoto [1] (cell cycle stage: G1/S) turned out to be 51.1 °C; in the data set on HeLa Kyoto [1] (cell cycle stage: mitosis), 49.8 °C. For the same sequence, the “solubility change mitosis (log2)” value with HeLa Kyoto [2] was 0.000207. In addition, the “solubility in G1/S (log2)” value with HeLa Kyoto [3] was -0.173. The thermal stability score was -1.35 in the data set on HeLa Kyoto [4] (setting [5]) and -0.782 in the data set on HeLa Kyoto [4] (cell cycle stage: mitosis).
For the sequence “MATLPAEPSAGPAAGGEAVAAAAATEEEEEEARQLLQTLQAAEGEAAAAAGAGAGAAAAGAEGPGSPGVPGSPPEAASEPPTGLRFSPEQVACVCEALLQAGHAGRLSRFLGALPPAERLRGSDPVLRARALVAFQRGEYAELYRLLESRPFPAAHHAFLQDLYLRARYHEAERARGRALGAVDKYRLRKKFPLPKTIWDGEETVYCFKERSRAALKACYRGNRYPTPDEKRRLATLTGLSLTQVSNWFKNRRQRDRTGAGGGAPCKSESDGNPTTEDESSRSPEDLERGAAPVSAEAAAQGSIFLAGTGPPAPCPASSSILVNGSFLAASGSPAVLLNGGPVIINGLALGEASSLGPLLLTGGGGAPPPQPSPQGASETKTSLVLDPQTGEVRLEEAQSEAPETKGAQVAAPGPALGEEVLGPLAQVVPGPPTAATFPLPPGPVPAVAAPQVVPLSPPPGYPTGLSPTSPLLNLPQVVPTSQVVTLPQAVGPLQLLAAGPGSPVKVAAAAGPANVHLINSGVGVTALQLPSATAPGNFLLANPVSGSPIVTGVALQQGKIILTATFPTSMLVSQVLPPAPGLALPLKPETAISVPEGGLPVAPSPALPEAHALGTLSAQQPPPAAATTSSTSLPFSPDSPGLLPNFPAPPPEGLMLSPAAVPVWSAGLELSAGTEGLLEAEKGLGTQAPHTVLRLPDPDPEGLLLGATAGGEVDEGLEAEAKVLTQLQSVPVEEPLEL [SIX5]”, the melting temperature in the data set with HeLa Kyoto [1] (cell cycle stage: mitosis) was 50.7 °C. In addition, the “solubility change mitosis (log2)” value in the data set on HeLa Kyoto [2] turned out to be 0.346. Further, in the data set with HeLa Kyoto [3], the “solubility in G1/S (log2)” value was -0.308. In addition, the thermal stability score in the data set on HeLa Kyoto [4] (setting [5]) was 0.121; in the data set with HeLa Kyoto [4] (cell cycle stage: mitosis) it was 0.872.
Regarding “MATPGNLGSSVLASKTKTKKKHFVAQKVKLFRASDPLLSVLMWGVNHSINELSHVQIPVMLMPDDFKAYSKIKVDNHLFNKENMPSHFKFKEYCPMVFRNLRERFGIDDQDFQNSLTRSAPLPNDSQARSGARFHTSYDKRYIIKTITSEDVAEMHNILKKYHQYIVECHGITLLPQFLGMYRLNVDGVEIYVIVTRNVFSHRLSVYRKYDLKGSTVAREASDKEKAKELPTLKDNDFINEGQKIYIDDNNKKVFLEKLKKDVEFLAQLKLMDYSLLVGIHDVERAEQEEVECEENDGEEEGESDGTHPVGTPPDSPGNTLNSSPPLAPGEFDPNIDVYGIKCHENSPRKEVYFMAIIDILTHYDAKKKAAHAAKTVKHGAGAEISTVNPEQYSKRFLDFIGHILT [PIP4K2A]”, the melting temperature with HeLa Kyoto [1] (cell cycle stage: G1/S) was 49.8 °C; in the data set on HeLa Kyoto [1] (cell cycle stage: mitosis), 49.4 °C. The “solubility change mitosis (log2)” value in the data set with HeLa Kyoto [2] is -0.142. Further, the “solubility in G1/S (log2)” value in the data set on HeLa Kyoto [3] came out at 0.309. Moreover, the thermal stability score with HeLa Kyoto [4] (setting [5]) is 2.24; with HeLa Kyoto [4] (cell cycle stage: mitosis), 1.11.
“MATPSKKTSTPSPQPSKRALPRDPSSEVPSKRKNSAPQLPLLQSSGPFVEGSIVRISMENFLTYDICEVSPGPHLNMIVGANGTGKSSIVCAICLGLAGKPAFMGRADKVGFFVKRGCSRGMVEIELFRASGNLVITREIDVAKNQSFWFINKKSTTQKIVEEKVAALNIQVGNLCQFLPQDKVGEFAKLSKIELLEATEKSIGPPEMHKYHCELKNLREKEKQLETSCKEKTEYLQKMVQRNERYKQDVERFYERKRHLDLIEMLEAKRPWVEYENVRQEYEEVKLVRDRVKEEVRKLKEGQIPVTCRIEEMENERHNLEARIKEKATDIKEASQKCKQKQDVIERKDKHIEELQQALIVKQNEELDRQRRIGNTRKMIEDLQNELKTTENCENLQPQIDAITNDLRRIQDEKALCEGEIIDKRRERETLEKEKKSVDDHIVRFDNLMNQKEDKLRQRFRDTYDAVLWLRNNRDKFKQRVCEPIMLTINMKDNKNAKYIENHIPSNDLRAFVFESQEDMEVFLKEVRDNKKLRVNAVIAPKSSYADKAPSRSLNELKQYGFFSYLRELFDAPDPVMSYLCCQYHIHEVPVGTEKTRERIERVIQETRLKQIYTAEEKYVVKTSFYSNKVISSNTSLKVAQFLTVTVDLEQRRHLEEQLKEIHRKLQAVDSGLIALRETSKHLEHKDNELRQKKKELLERKTKKRQLEQKISSKLGSLKLMEQDTCNLEEEERKASTKIKEINVQKAKLVTELTNLIKICTSLHIQKVDLILQNTTVISEKNKLESDYMAASSQLRLTEQHFIELDENRQRLLQKCKELMKRARQVCNLGAEQTLPQEYQTQVPTIPNGHNSSLPMVFQDLPNTLDEIDALLTEERSRASCFTGLNPTIVQEYTKREEEIEQLTEELKGKKVELDQYRENISQVKERWLNPLKELVEKINEKFSNFFSSMQCAGEVDLHTENEEDYDKYGIRIRVKFRSSTQLHELTPHHQSGGERSVSTMLYLMALQELNRCPFRVVDEINQGMDPINERRVFEMVVNTACKENTSQYFFITPKLLQNLPYSEKMTVLFVYNGPHMLEPNTWNLKAFQRRRRRITFTQPS [SMC5]”: the melting temperature is 50.6 °C in the data set with HeLa Kyoto [1] (cell cycle stage: G1/S) and 50.7 °C in the data set on HeLa Kyoto [1] (cell cycle stage: mitosis). The “solubility change mitosis (log2)” value with HeLa Kyoto [2] was -0.0502. Further, in the data set with HeLa Kyoto [3], the “solubility in G1/S (log2)” value is -0.139. Moreover, the thermal stability score in the data set on HeLa Kyoto [4] (setting [5]) came to 0.153; with HeLa Kyoto [4] (cell cycle stage: mitosis), 0.876.
